Here are results for one molecule from patent US20030199671A1 (published 2003).

Test [1] addresses T1, human IgG1 (human, UniProt P01857-1 1-330 = IgG part).
T1 construct: Calbiochem; human plasma IgG1 in anisotropy studies, myeloma-derived (cat. 400120) in batch/column studies; also called hIgG1
Briefly: fluorescence anisotropy; pH 7.4 PBS. The method, then:
(§1) All measurements were performed in 384 well microplates with 20 nM fluorescein-labeled peptide and various concentrations of the IgG isoform in a volume of between 10 and 20 μl using a Tecan Polarion fluorescence polarization plate reader. All binding buffers included 0.01% (v/v) Tween 20 to prevent peptide adsorption to the microplate. The binding mixture was equilibrated for 10 minutes in the microplate at 30° C. prior to performing the measurement.

For the next test, the target named is T2, human IgG2 (human, UniProt P01859-1 1-326 = IgG part).
T2 construct: Calbiochem; plasma IgG2 in anisotropy studies, myeloma-derived (cat. 400122) in batch/column studies; also called hIgG2
T2 sequence (P01859 other isoform, or with tags, fused parts or gaps): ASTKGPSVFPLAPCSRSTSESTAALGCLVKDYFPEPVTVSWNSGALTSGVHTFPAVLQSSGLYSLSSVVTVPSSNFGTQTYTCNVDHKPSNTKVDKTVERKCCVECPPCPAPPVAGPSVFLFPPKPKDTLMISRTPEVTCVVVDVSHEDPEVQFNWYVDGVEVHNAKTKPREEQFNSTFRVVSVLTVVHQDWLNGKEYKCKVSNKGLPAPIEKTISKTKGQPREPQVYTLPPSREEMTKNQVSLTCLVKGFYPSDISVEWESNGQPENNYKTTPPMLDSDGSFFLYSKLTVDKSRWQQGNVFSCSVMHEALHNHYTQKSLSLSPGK
The experiment in a line: fluorescence anisotropy; pH 7.4 PBS. The protocol: as §1
A general note: Polarisation of emitted light reports the rotation of a fluorescent probe.

The next test concerns the target T3, human IgG4 (human, UniProt P01861-1 1-327 = IgG part).
T3 construct: Calbiochem; plasma IgG4 in anisotropy studies, myeloma-derived (cat. 400126) in batch/column studies; also called hIgG4
The experiment in a line: fluorescence anisotropy; pH 7.4 PBS. The protocol:
as §1

The target of test [2] is T1, human IgG1. Briefly: fluorescence anisotropy; pH 5.7, 0 M NaCl. The protocol:
as §1

Test [3] concerns the target T1, human IgG1. The experiment in a line: fluorescence anisotropy; pH 5.7, 0.15 M NaCl. The protocol: as §1
Test [4] has as its target T4, human IgG (unfractionated, polyclonal).
T4 construct: also called hIgG; polyclonal human IgG
Briefly: filterplate; 25 mg human IgG applied per ml resin. The protocol: After incubation of the samples, with shaking, at room temperature for one hour, the supernatant liquid from each well, containing unbound IgG, was collected by centrifugation into the cognate well of a collection plate. The assay plate was washed three times with PBST (200 μl/wash) and bound IgG was eluted from the media samples by incubation for 30-60 minutes at room temperature in 100 μl Elution Buffer (100 mM CAPS, pH 11.5). Eluates were collected by centrifugation for analysis. Protein concentrations were determined from A₂₈₀ measurements and plotted as a function of mg human IgG bound per ml resin vs. mg human IgG applied per ml resin.
These were subsequently tested in batch filterplate format for relative static capacity, human IgG subtype and species specificity as previously described. In addition, total dynamic capacities were determined for comparison. […] The static capacity (mg IgG bound per ml resin) was measured at the 2.5 mg/ml target concentration (25 mg human IgG applied per ml resin).

Test [5] concerns the target T5, Human IgG Fc fragment isolated from plasma (human).
T5 construct: domain: Fc fragment; also called human Fc; Fc protein
Briefly: fluorescence anisotropy; pH 8.0, 0.05 M Tris-HCl, 0.2 M NaCl. The method, then:
as §1

Positions of bridges follow the written chain, without caps; N, C: chain ends.

Usually Kd stands for the concentration at which binding is half-saturated.

T1 sequence (P01857 other isoform, or with tags, fused parts or gaps): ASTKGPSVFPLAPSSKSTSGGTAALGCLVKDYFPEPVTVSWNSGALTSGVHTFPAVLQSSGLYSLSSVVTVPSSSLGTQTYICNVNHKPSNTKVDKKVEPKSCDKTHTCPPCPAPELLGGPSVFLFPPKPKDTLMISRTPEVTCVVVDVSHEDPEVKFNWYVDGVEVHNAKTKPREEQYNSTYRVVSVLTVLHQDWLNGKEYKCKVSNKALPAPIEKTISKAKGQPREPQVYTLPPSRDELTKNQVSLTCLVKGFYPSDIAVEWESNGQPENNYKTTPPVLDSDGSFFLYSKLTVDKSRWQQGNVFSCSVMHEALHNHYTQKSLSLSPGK
T3 sequence (P01861 other isoform, or with tags, fused parts or gaps): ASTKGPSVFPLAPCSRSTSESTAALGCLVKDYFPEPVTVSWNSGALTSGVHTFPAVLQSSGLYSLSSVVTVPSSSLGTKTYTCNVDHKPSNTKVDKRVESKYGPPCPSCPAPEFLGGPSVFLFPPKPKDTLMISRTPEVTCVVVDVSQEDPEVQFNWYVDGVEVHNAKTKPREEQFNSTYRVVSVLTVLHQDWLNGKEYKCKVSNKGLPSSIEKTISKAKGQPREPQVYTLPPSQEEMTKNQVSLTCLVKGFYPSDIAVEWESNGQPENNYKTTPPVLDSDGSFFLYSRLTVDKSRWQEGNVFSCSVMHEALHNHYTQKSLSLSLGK

Ac-GDDHMCVYTTWGELIWCDNHEPGPEGGGK-NH2 (disulfide 6-17 (inferred), Synthetic disulfide-cyclised peptide) [DX249]: the Kd in the test with human IgG1 [1] was determined as 1.4 µM; with human IgG2, 1.1 µM; in the test with human IgG4 it was 1.9 µM; in the test with human IgG1 [2], 0.074 µM; in the test with human IgG1 [3] it was 0.84 µM; in test [5] it was 2.5 µM. Moreover, in test [4], the “Static Cap.” value is 24 mg/mL.
